Test results from article PMC3799832.

Target: full-length talin1 purified from turkey gizzard (turkey)
Assay: electron microscopy single-particle 3D reconstruction

Substance: full-length talin1 purified from turkey gizzard
- stoichiometry N: 2
